Laboratory results: paper PMC6763431, “Methionine in a protein hydrophobic core drives tight interactions required for assembly of spider silk” (Nature Communications, 2019)

Legend:
[1] = molecular target: T1, wild-type N-terminal domain of major ampullate spidroin 1 (MaSp1) from Euprosthenops australis (Euprosthenops australis), Q05H60; assay: SEC-MALS; 20 mM MES, pH 6.0, ionic strength 60 mM (KCl), dimer conditions; µM sample concentration; dimer to monomers; settings: remark: other sources report otherwise
T1 chain: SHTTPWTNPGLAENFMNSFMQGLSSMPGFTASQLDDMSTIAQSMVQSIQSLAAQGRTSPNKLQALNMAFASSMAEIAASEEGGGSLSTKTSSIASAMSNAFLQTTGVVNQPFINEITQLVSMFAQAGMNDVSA

[2] = molecular target: the molecule itself; assay: SEC; high-resolution SEC with Trp fluorescence detection, Superdex-75 Increase 10/300, 0.8 ml/min, 20 mM MES, pH 6.0, ionic strength 20 mM (KCl); elution volume against protein concentration fitted to a monomer/dimer equilibrium; dimer to monomers
[3] = molecular target: T2, AttoOxa11-modified L6-NTD mutant Q50C (Euprosthenops australis, AttoOxa11 (maleimide derivative) on the thiol of the engineered cysteine at position 50); assay: MST; 40 nM AttoOxa11-modified L6-NTD Q50C with increasing concentrations of unlabelled L6-NTD, standard untreated capillaries, 50% heating power; bimolecular binding isotherm (pseudo-dimerization); settings: both partners purified
T2 chain: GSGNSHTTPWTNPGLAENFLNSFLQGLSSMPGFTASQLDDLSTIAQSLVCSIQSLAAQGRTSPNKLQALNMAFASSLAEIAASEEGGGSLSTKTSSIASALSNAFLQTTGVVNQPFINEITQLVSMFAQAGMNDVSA

B1: wild-type N-terminal domain of major ampullate spidroin 1 (MaSp1) from Euprosthenops australis, Q05H60 24-156 (domain or fragment)
chain: SHTTPWTNPGLAENFMNSFMQGLSSMPGFTASQLDDMSTIAQSMVQSIQSLAAQGRTSPNKLQALNMAFASSMAEIAASEEGGGSLSTKTSSIASAMSNAFLQTTGVVNQPFINEITQLVSMFAQAGMNDVSA
Work on B1 yielded a stoichiometry N [1] of 2.

B2: L6-NTD (MaSp1 NTD from E. australis with all six core Met mutated to Leu) (domain or fragment)
chain: GSGNSHTTPWTNPGLAENFLNSFLQGLSSMPGFTASQLDDLSTIAQSLVQSIQSLAAQGRTSPNKLQALNMAFASSLAEIAASEEGGGSLSTKTSSIASALSNAFLQTTGVVNQPFINEITQLVSMFAQAGMNDVSA
With B2 the Kd [2] was 1100 nM and the Kd [3] was 3600 ± 1800 nM.
